Source: patent US20210371484A1 (SYLUS, published 2021)

T1: Soluble mouse EPOR chimera protein (mouse, UniProt P14753 25-249)
T1 construct: Bought reagent (R&D Systems), amine-coupled to a carboxymethylated dextran SPR chip; it says only 'soluble' and 'chimera'; also called Receptor mouse EPOR chimera protein; erythropoietin receptor
T1 sequence (looked up): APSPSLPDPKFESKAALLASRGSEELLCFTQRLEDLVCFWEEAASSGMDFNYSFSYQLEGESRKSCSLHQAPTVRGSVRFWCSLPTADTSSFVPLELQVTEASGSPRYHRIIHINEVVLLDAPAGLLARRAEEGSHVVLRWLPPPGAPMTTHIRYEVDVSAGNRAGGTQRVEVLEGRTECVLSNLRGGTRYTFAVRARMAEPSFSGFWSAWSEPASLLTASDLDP


Target: T1, Soluble mouse EPOR chimera protein
Experiment: SPR (Reichert SR 7500C), mouse EPOR chimera amine-coupled on chip, peptide flowed at 5, 2.5 and 1.25 uM
Experimental: Specifically, the real-time SPR analysis was performed using Reichert SPR Biosensor SR 7500C equipment (Reichert Inc., NY, USA). Receptor mouse EPOR chimera protein (Soluble mouse EPOR chimera protein)(R&D Systems, Minneapolis, Minn., USA) was covalently bonded to a chip (BR-1005-39, Pharmacia Biosensor AB) coated with carboxy methylated dextran matrix by an amine coupling procedure using an amine coupling kit (BR-1000-50, GE Healthcare, USA) according to the manufacturer's manual. Peptides having concentrations of 5, 2.5 and 1.25 μM according to the present disclosure and scrambled peptides were tested by flowing at a flow rate of 5 μl/minute. In addition, the experiment was independently repeated to increase the accuracy. In addition, DMSO was flowed at 5 μl/minute to normalize the signal. After sufficiently inducing the binding of the peptide of an aspect to the receptor, regeneration was induced by injecting 20 μl/minute of 25 mM acetic acid into a sensor chip.

Binder	Kd
LQLHVLKAVSGLRTLTMIRRALG (Synthetic 23-mer made as a monomer by solid phase synthesis; also called erythropoietin-induced peptide) [SY-2]	1550 µM
LQLHVLKAVAGLRTLTMIRRALA (Synthetic 23-mer made as a monomer by solid phase synthesis; also called erythropoietin-induced peptide) [SY-3]	2160 µM
LQLHVLKAVSGLRTLTTLLRALG (Synthetic 23-mer made as a monomer by solid phase synthesis; No terminal protecting group is stated for the peptide as tested; also called erythropoietin-induced peptide) [SY-1]	1410 µM
